Reference: patent US20230346969A1, “INTERMEDIATE FOR PREPARING ANTIBODY-DRUG CONJUGATE (ADC), PREPARATION METHOD THEREFOR, AND USE THEREOF” (priority 2020, published 2023)

Legend:
[1] = target: Human trophoblast cell surface antigen 2 (Trop-2), on tumor cell lines (human) (UniProt P09758); assay: flow cytometry, 5 ug/mL hRS7 + PE anti-human IgG; cell line printed 'CPAC-1' (pancreas; probably CFPAC-1)
[2] = target: Human trophoblast cell surface antigen 2 (Trop-2), on tumor cell lines (human) (UniProt P09758); assay: flow cytometry, 5 ug/mL hRS7 + PE anti-human IgG; cell line CFPAC-1 (pancreas)
[3] = Preparation of control ADC via hydrophobic VC linker (behaviour in solution); type: physicochemical; conditions: hydrophobic VC linker with PTX payload
Method: A Troptargeted hRS7-VC-PTX molecule was prepared via a hydrophobic VC linker (FIG. 1a).

[4] = target: Human trophoblast cell surface antigen 2 (Trop-2), on tumor cell lines (human) (UniProt P09758); assay: flow cytometry background, taken as human IgG1 isotype control; cell line printed 'MOA-413-468' (probably MDA-MB-468)
[5] = target: Human trophoblast cell surface antigen 2 (Trop-2), on tumor cell lines (human) (UniProt P09758); assay: flow cytometry background, taken as human IgG1 isotype control; cell line printed 'SRM-M9-409' (probably MDA-MB-468)
[6] = target: Human trophoblast cell surface antigen 2 (Trop-2), on tumor cell lines (human) (UniProt P09758); assay: flow cytometry background, taken as human IgG1 isotype control; cell line printed 'SRM-C-21H' (probably SCLC-21H)
[7] = target: Human trophoblast cell surface antigen 2 (Trop-2), on tumor cell lines (human) (UniProt P09758); assay: flow cytometry background, taken as human IgG1 isotype control; cell line printed 'SK8RS' (probably SKBR3)
[8] = target: Human trophoblast cell surface antigen 2 (Trop-2), on tumor cell lines (human) (UniProt P09758); assay: flow cytometry background, taken as human IgG1 isotype control; cell line printed 'HCl-11685' (probably NCI-H1688, called Trop-2-negative in paragraph 230)
[9] = target: Human trophoblast cell surface antigen 2 (Trop-2), on tumor cell lines (human) (UniProt P09758); assay: flow cytometry background, taken as human IgG1 isotype control; cell line printed 'HCCHOI' (probably HCC1806)
[10] = target: Human trophoblast cell surface antigen 2 (Trop-2), on tumor cell lines (human) (UniProt P09758); assay: flow cytometry background, taken as human IgG1 isotype control; cell line printed 'ECLC 214' (probably SCLC-21H)
[11] = target: Human trophoblast cell surface antigen 2 (Trop-2), on tumor cell lines (human) (UniProt P09758); assay: flow cytometry background, taken as human IgG1 isotype control; cell line printed 'SRM-K9-231' (probably MDA-MB-231)
[12] = target: Human trophoblast cell surface antigen 2 (Trop-2), on tumor cell lines (human) (UniProt P09758); assay: flow cytometry background, taken as human IgG1 isotype control; cell line printed 'SK-WSS-7' (probably SK-MES-1)
[13] = target: Human trophoblast cell surface antigen 2 (Trop-2), on tumor cell lines (human) (UniProt P09758); assay: flow cytometry background, taken as human IgG1 isotype control; cell line printed 'BKFC-Y' (probably BXPC-3)
[14] = target: Human trophoblast cell surface antigen 2 (Trop-2), on tumor cell lines (human) (UniProt P09758); assay: flow cytometry background, taken as human IgG1 isotype control; cell line printed 'COXC28' (probably COLO205)
[15] = target: Human trophoblast cell surface antigen 2 (Trop-2), on tumor cell lines (human) (UniProt P09758); assay: flow cytometry background, taken as human IgG1 isotype control; cell line printed 'CCAO205' (probably COLO205)
[16] = target: Human trophoblast cell surface antigen 2 (Trop-2), on tumor cell lines (human) (UniProt P09758); assay: flow cytometry background, taken as human IgG1 isotype control; cell line printed 'SKERS' (probably SKBR3)
[17] = target: Human trophoblast cell surface antigen 2 (Trop-2), on tumor cell lines (human) (UniProt P09758); assay: flow cytometry background, taken as human IgG1 isotype control; cell line printed 'CPAC-1' (probably CFPAC-1)
[18] = target: Human trophoblast cell surface antigen 2 (Trop-2), on tumor cell lines (human) (UniProt P09758); assay: flow cytometry background, taken as human IgG1 isotype control; cell line printed 'Cepes-3' (probably Capan-1)
[19] = target: Human trophoblast cell surface antigen 2 (Trop-2), on tumor cell lines (human) (UniProt P09758); assay: flow cytometry background, taken as human IgG1 isotype control; cell line printed 'H123' (probably HT29)
[20] = target: Human trophoblast cell surface antigen 2 (Trop-2), on tumor cell lines (human) (UniProt P09758); assay: flow cytometry background, taken as human IgG1 isotype control; cell line printed 'HOC2401' (probably NCIH2452)
[21] = target: Human trophoblast cell surface antigen 2 (Trop-2), on tumor cell lines (human) (UniProt P09758); assay: flow cytometry background, taken as human IgG1 isotype control; cell line printed 'SK-M55-1' (probably SK-MES-1)
[22] = target: Human trophoblast cell surface antigen 2 (Trop-2), on tumor cell lines (human) (UniProt P09758); assay: flow cytometry background, taken as human IgG1 isotype control; cell line CFPAC-1
[23] = target: Human trophoblast cell surface antigen 2 (Trop-2), on tumor cell lines (human) (UniProt P09758); assay: flow cytometry background, taken as human IgG1 isotype control; cell line printed 'RMCA' (pancreas; probably BXPC-3)
[24] = target: Human trophoblast cell surface antigen 2 (Trop-2), on tumor cell lines (human) (UniProt P09758); assay: flow cytometry background, taken as human IgG1 isotype control; cell line printed 'NCl-H1828' (probably NCI-H1688, called Trop-2-negative in paragraph 230)
[25] = target: Human trophoblast cell surface antigen 2 (Trop-2), on tumor cell lines (human) (UniProt P09758); assay: flow cytometry background, taken as human IgG1 isotype control; cell line printed 'HOC1906' (probably HCC1806)
[26] = target: Human trophoblast cell surface antigen 2 (Trop-2), on tumor cell lines (human) (UniProt P09758); assay: flow cytometry background, taken as human IgG1 isotype control; cell line printed 'Cxoo-1' (probably Capan-1)
[27] = target: Human trophoblast cell surface antigen 2 (Trop-2), on tumor cell lines (human) (UniProt P09758); assay: flow cytometry background, taken as human IgG1 isotype control; cell line printed 'MCP-83-21' (probably MDA-MB-231)
[28] = target: Human trophoblast cell surface antigen 2 (Trop-2), on tumor cell lines (human) (UniProt P09758); assay: flow cytometry background, taken as human IgG1 isotype control; cell line printed '3128' (probably HT29)

Chain of UniProt P09758 (P09758 27-323): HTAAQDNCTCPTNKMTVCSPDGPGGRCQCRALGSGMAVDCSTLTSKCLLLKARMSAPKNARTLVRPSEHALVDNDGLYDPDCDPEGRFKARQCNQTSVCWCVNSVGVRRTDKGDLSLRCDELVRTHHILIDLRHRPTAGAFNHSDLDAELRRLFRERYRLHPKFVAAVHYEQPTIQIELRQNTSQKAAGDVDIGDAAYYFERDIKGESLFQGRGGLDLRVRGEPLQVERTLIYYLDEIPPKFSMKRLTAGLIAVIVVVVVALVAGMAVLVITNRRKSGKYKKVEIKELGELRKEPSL

Substance: Humanized Trop-2 antibody hRS7
- MFI [1]: 3840 MFI
- MFI [2]: 35400 MFI

Substance: hRS7-VC-PTX
- behaviour in solution during the preparation process [3]: completely precipitated out of solution

Substance: human IgG1 isotype control (antibody)
- MFI (background) [4]: 678 MFI
- MFI (background) [5]: 378 MFI
- MFI (background) [6]: 1220 MFI
- MFI (background) [7]: 1830 MFI
- MFI (background) [8]: 868 MFI
- MFI (background) [9]: 692 MFI
- MFI (background) [10]: 1230 MFI
- MFI (background) [11]: 1250 MFI
- MFI (background) [12]: 691 MFI
- MFI (background) [13]: 1670 MFI
- MFI (background) [14]: 811 MFI
- MFI (background) [15]: 1530 MFI
- MFI (background) [16]: 1850 MFI
- MFI (background) [17]: 1580 MFI
- MFI (background) [18]: 3580 MFI
- MFI (background) [19]: 894 MFI
- MFI (background) [20]: 1580 MFI
- MFI (background) [21]: 801 MFI
- MFI (background) [22]: 1580 MFI
- MFI (background) [23]: 1080 MFI
- MFI (background) [24]: 480 MFI
- MFI (background) [25]: 192 MFI
- MFI (background) [26]: 3650 MFI
- MFI (background) [27]: 1250 MFI
- MFI (background) [28]: 866 MFI
